# Target: Omicron RBD (Severe acute respiratory syndrome coronavirus 2, UniProt P0DTC2, E484A/G339D/G446S/G496S/K417N/N440K/N501Y/Q493R/Q498R/S371L/S373P/S375F/S477N/T478K/Y505H)
substance,measurement,value
R7-02 (LGKGDFRK),RBD binding to highly mutated variant (Omicron) versus wild type,most strongly recognized

# Source: patent US20250376490A1, “C[…]-DERIVED PEPTIDE-NUCLEIC ACID HYBRID MOLECULE FOR TREATING INFECTION CAUSED BY MUTATED CORONAVIRUS” (priority 2022, published 2025)
